Measured values taken from patent US20250340613A1 (JOINT STOCK COMPANY BIOCAD, published 2025).

T1: C-Avi-His-TEVs-HSA_hBCMA, Tumor necrosis factor receptor superfamily member 17 (Homo sapiens) aa 1-54 (Homo sapiens, UniProt Q02223 1-54)
T1 construct: range 1-54; not shown: Avi, His, TEV site and HSA parts as the name implies
T1 sequence (looked up): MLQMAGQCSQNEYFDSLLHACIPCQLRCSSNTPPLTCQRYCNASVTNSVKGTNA

T2: IL5R-His, Interleukin-5 receptor subunit alpha (Homo sapiens) aa 22-342 (Homo sapiens, UniProt Q01344 22-342)
T2 construct: not shown: His tag as the name implies
T2 sequence (looked up): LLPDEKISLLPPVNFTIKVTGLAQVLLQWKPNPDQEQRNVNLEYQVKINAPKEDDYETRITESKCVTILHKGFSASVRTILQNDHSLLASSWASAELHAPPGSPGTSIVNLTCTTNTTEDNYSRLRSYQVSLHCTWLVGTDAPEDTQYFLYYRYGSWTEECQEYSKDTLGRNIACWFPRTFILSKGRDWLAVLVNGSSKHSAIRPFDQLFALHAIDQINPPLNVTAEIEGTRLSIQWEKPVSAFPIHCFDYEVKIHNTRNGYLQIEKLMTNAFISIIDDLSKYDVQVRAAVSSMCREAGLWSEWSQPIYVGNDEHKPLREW


How the values were obtained:
[1] = target: T1, C-Avi-His-TEVs-HSA_hBCMA, Tumor …; assay: BLI Octet RED 384; antibody on ProA sensor, antigen 30 ug/ml
[2] = target: T3, extracellular domain of the human PD-1 protein (hPD1ex-H6F) (Homo sapiens, UniProt Q15116 21-170); assay: BLI Octet RED 384; antibody on ProA sensor, antigen in solution; 1:1 global fit
T3 construct: Molecular weight 20.6 kDa; made in CHO cells; also called hPDlex-H6F; not shown: C-terminal His and FLAG tags
Method: (§1) The experiments were carried out using a kinetic buffer solution (hereinafter referred to as 1×KB) having the following formulation: 4.3 mM Na₂HPO₄; 136.9 mM NaCl, 1.5 mM KH₂PO₄; 2.7 mM KCl; the volume fraction of the added Tween 20 was 0.1%; the mass fraction of the added BSA (bovine serum albumin) was 0.1%; pH 7.4. Before the measurement, the ProA sensors were regenerated with a solution of 50 mM glycine and hydrochloric acid, pH 1.8 (5 seconds in the regenerating solution, 5 seconds in 1×KB, three repetitions). In the case of the hPD1ex-H6F and hCSF1R_His antigens, the Protein A (ProA) biosensors (ForteBio) were immersed in a solution with antibodies at a concentration of 10 μg/ml for 60 seconds to immobilize same. The baseline was recorded in 1×KB for 60 seconds. The sensors loaded with the antibody were then immersed into wells containing a solution of the target antigen (analyte) in a kinetic buffer for 90 seconds. Measurements were performed for solutions with hPDlex-H6F analyte at concentrations of 2.50 μg/ml (121.4 nM), 1.25 μg/ml (60.7 nM), 0.625 μg/ml (30.35 nM). […] Then we detected complex dissociation in 1×KB for 210 s for hPDlex-H6F, 300 s for hCSF1R_His.
(§2) All measurements were carried out at 30° C., orbital mixing speed was 1,000 revolutions per minute.
(§3) To obtain numerical values of kinetic constants (kₒₙ is the on/association rate constant, kdis is the dissociation rate constant, KD is the equilibrium dissociation constant or affinity constant), the resulting sensograms were processed according to the 1:1 interaction model using Global Fit (selection of one set of kon, kdis, KD constants to analyze several sensograms of different concentrations) of the ForteBio Octet Data Analysis 9.0 software.

[3] = target: T4, biotinylated peptide [NH2]…JQS[CH2CH2]biotin comprising a fragment of the human CD20 sequence (human, [NH2] at the N-terminus; [CH2CH2]biotin at the C-terminus; the letter J at position 20 is printed so and is not a standard residue code); assay: BLI Octet RED 384; biotinylated peptide on SAX sensor, antibody in solution; 1:1 global fit
T4 construct: also called CD20 peptide
Method: In the case of the biotinylated CD20 peptide, the peptide at a concentration of 5 μg/ml was immobilized on the surface of SAX sensors (High Precision Streptavidin (SAX) biosensors, ForteBio) for 120 seconds. The baseline was recorded in a 1×KB solution for 120 seconds. The sensors containing the loaded peptide were immersed into wells containing the antibody solution (analyte) in 1×KB for 15 seconds. Measurements were carried out for solutions with analyte (antibodies in the case of CD20 peptide) at concentrations of 150 μg/ml, 75 μg/ml, 37.5 μg/ml. Complex dissociation was recorded in 1×KB for 120 seconds.
as §2, §3

[4] = target: T5, Macaca CSF1R_C-His, Macrophage colony-stimulating factor 1 receptor (Macaca mulatta) aa 20-513 (Macaca mulatta); assay: BLI Octet RED 384; antibody on ProA sensor, antigen 30 ug/ml (534.8 nM); response at end of association
T5 construct: range 20-513
Method: (§4) Experimental study of nonspecific binding of bispecific chimeric antibodies to non-target antigens was performed on Forte Bio Octert RED 384. Protein A (ProA) biosensors (ForteBio) were immersed into a solution containing antibodies at a concentration of 10 μg/ml for 150 seconds to immobilize same. The baseline was recorded in a 1×KB solution for 30 seconds. The antibody-loaded sensors were then immersed into wells containing non-target antigens at a concentration of 30 μg/ml for 150 seconds. Complex dissociation was then recorded for 30 seconds.
(§5) The reference sensors went through all the steps as the sensors used to record analyte sensograms did, with the exception of the association step—at the association step, the sensors were immersed in a kinetic buffer solution without analyte (the reference sensor signals were measured in parallel with the recording of the main sensograms). The reference signal was subtracted from the signal received on sensors interacting with the analyte during the processing of sensograms.
(§6) Sensograms were processed using ForteBio Octet Data Analysisn 9.0 software. To report no non-specific interaction, the recorded signal level was checked at the end of the association step (the response parameter).

[5] = target: T2, IL5R-His, Interleukin-5 receptor …; assay: BLI Octet RED 384; antibody on ProA sensor, antigen 30 ug/ml (757.6 nM); response at end of association
Method: as §4, §5, §6

[6] = target: T6, extracellular domain of the human CSF1R protein (hCSF1R_His) (Homo sapiens, UniProt P07333 20-512); assay: BLI Octet RED 384; antibody on ProA sensor, antigen in solution; 1:1 global fit
T6 construct: range 20-512; Molecular weight 57.4 kDa; made in CHO cells; also called hCSF1_His; not shown: C-terminal His and FLAG tags
Method: as §1, §2, §3

T6 sequence (P07333 20-512 limits assumed): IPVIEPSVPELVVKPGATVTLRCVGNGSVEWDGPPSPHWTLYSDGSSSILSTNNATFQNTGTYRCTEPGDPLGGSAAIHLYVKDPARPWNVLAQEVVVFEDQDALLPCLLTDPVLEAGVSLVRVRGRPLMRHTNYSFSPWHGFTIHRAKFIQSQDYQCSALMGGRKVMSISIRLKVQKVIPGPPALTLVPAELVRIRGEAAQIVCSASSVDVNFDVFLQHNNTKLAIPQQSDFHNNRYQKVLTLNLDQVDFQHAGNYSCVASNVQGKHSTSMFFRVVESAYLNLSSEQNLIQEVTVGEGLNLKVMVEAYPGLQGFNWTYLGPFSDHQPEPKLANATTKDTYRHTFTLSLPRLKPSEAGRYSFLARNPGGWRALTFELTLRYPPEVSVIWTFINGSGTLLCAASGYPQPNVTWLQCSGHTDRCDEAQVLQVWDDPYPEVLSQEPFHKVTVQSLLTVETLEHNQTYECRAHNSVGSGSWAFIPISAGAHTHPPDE
T3 sequence (Q15116 21-170 limits assumed, form in doubt): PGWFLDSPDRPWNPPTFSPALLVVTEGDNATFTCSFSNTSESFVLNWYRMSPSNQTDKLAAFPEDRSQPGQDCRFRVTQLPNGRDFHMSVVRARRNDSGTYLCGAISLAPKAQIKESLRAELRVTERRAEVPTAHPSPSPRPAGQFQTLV
T4 sequence (peptide, as listed by the source): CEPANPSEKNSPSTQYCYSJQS

Kd [2] | koff [2] | kon [2] | Kd [3] | koff [3] | kon [3] | Signal level (nm) [4] | Signal level (nm) [5] | Kd [6] | koff [6] | kon [6] | Binder | binding result [1]
5.69 nM | 0.00101 s⁻¹ | 178000 M⁻¹ s⁻¹ | 1120 nM | 0.342 s⁻¹ | 305000 M⁻¹ s⁻¹ | -0.0084 nm | 0.0225 nm | – | – | – | 02-005, bivalent bispecific chimeric antibody that specifically binds to PD1 and CD20 (bispecific antibody, human IgG1, kappa, L234A L235A, Produced in CHO cells) heavy 1: EVQLVESGGGLVQPGGSLRLSCAASGYTFTSYNMHWVRQAPGKGLEWVGAIYPGNGDTSYNQKFKGRFTISVDKSKNTLYLQMNSLRAEDTAVYYCARVVYYSNSYWYFDVWGQGTLVTVSSASTKGPSVFPLAPSSKSTSGGTAALGCLVKDYFPEPVTVSWNSGALTSGVHTFPAVLQSSGLYSLSSVVTVPSSSLGTQTYICNVNHKPSNTKVDKRVEPKSCDKTHTCPPCPAPEAAGGPSVFLFPPKPKDTLYITREPEVTCVVVDVSHEDPEVKFNWYVDGVEVHNAKTKPREEQYNSTYRVVSVLTVLHQDWLNGKEYKCKVSNKALPAPIEKTISKAKGQPREPQVCTLPPSRDELTKNQVSLSCAVKGFYPSDIAVEWESNGQPENNYKTTPPVLDSDGSFFLVSKLTVDKSRWQQGNVFSCSVMHEALHNHYTQKSLSLSPGK light 1: DIQMTQSPSSLSASVGDRVTITCRASSSVSYMHWYQQKPGKAPKPLIYAPSNLASGVPSRFSGSGSGTDFTLTISSLQPEDFATYYCQQWSFNPPTFGQGTKVEIKRTVAAPSVFIFPPSDEQLKSGTASVVCLLNNFYPREAKVQWKVDNALQSGNSQESVTEQDSKDSTYSLSSTLTLSKADYEKHKVYACEVTHQGLSSPVTKSFNRGEC heavy 2: not shown light 2: QPVLTQPLSVSVALGQTARITCGGNNIGSKNVHWYQQKPGQAPVLVIYRDSNRPSGIPERFSGSNSGNTATLTISRAQAGDEADYYCQVWDSSTAVFGTGTKLTVLQQRQVKPEAWLSSGPSPGPGRLQLVCHVSGFYPKPVWVMWMRGEQEQQGTQLGDILPNANWTWYLRATLDVADGEAAGLSCRVKHSSLEGQDIILYWRGSC | no binding (tested: 391.2 nM)
4.49 nM | 0.00109 s⁻¹ | 242000 M⁻¹ s⁻¹ | – | – | – | 0.535 nm | 0.0221 nm | 0.831 nM | 0.000314 s⁻¹ | 378000 M⁻¹ s⁻¹ | 02-007, bivalent bispecific chimeric antibody that specifically binds to PD1 and CSF1R (bispecific antibody, human IgG1, kappa, L234A L235A, Produced in CHO cells) heavy 1: QVQLVESGGGLVRPGGSLRLSCAASEFTFDDYAMSWVRQAPGKGLEWVSAISWNGGSTNYADSVKGRFTISRDNAKNSLYLQMNSLRAEDTALYYCASTVEVAHRRLYKYLEVWGQGTLVTVSSASTKGPSVFPLAPSSKSTSGGTAALGCLVKDYFPEPVTVSWNSGALTSGVHTFPAVLQSSGLYSLSSVVTVPSSSLGTQTYICNVNHKPSNTKVDKRVEPKSCDKTHTCPPCPAPEAAGGPSVFLFPPKPKDTLYITREPEVTCVVVDVSHEDPEVKFNWYVDGVEVHNAKTKPREEQYNSTYRVVSVLTVLHQDWLNGKEYKCKVSNKALPAPIEKTISKAKGQPREPQVCTLPPSRDELTKNQVSLSCAVKGFYPSDIAVEWESNGQPENNYKTTPPVLDSDGSFFLVSKLTVDKSRWQQGNVFSCSVMHEALHNHYTQKSLSLSPGK light 1: QAGLTQPPSVSVAPGQTARITCGGNNIGSKSVHWYQQKPGQAPVLVVYGDSDRPSGIPERFSGSNSGNTATLTISRVEAGDEADYYCQVWDISSDHVVFGGGTQLTVLRTVAAPSVFIFPPSDEQLKSGTASVVCLLNNFYPREAKVQWKVDNALQSGNSQESVTEQDSKDSTYSLSSTLTLSKADYEKHKVYACEVTHQGLSSPVTKSFNRGEC heavy 2: not shown light 2: QPVLTQPLSVSVALGQTARITCGGNNIGSKNVHWYQQKPGQAPVLVIYRDSNRPSGIPERFSGSNSGNTATLTISRAQAGDEADYYCQVWDSSTAVFGTGTKLTVLQQRQVKPEAWLSSGPSPGPGRLQLVCHVSGFYPKPVWVMWMRGEQEQQGTQLGDILPNANWTWYLRATLDVADGEAAGLSCRVKHSSLEGQDIILYWRGSC | no binding (tested: 391.2 nM)
2.51 nM | 0.000691 s⁻¹ | 275000 M⁻¹ s⁻¹ | – | – | – | 0.587 nm | 0.0153 nm | 0.797 nM | 0.000286 s⁻¹ | 359000 M⁻¹ s⁻¹ | 02-006, bivalent bispecific chimeric antibody that specifically binds to PD1 and CSF1R (bispecific antibody, human IgG1, kappa, L234A L235A, Produced in CHO cells) heavy 1: QVQLVQSGGGLVQPGGSLRLSCAASGFTFSSYWMYWVRQVPGKGLEWVSAIDTGGGRTYYADSVKGRFAISRVNAKNTMYLQMNSLRAEDTAVYYCARDEGGGTGWGVLKDWPYGLDAWGQGTLVTVSSASTKGPSVFPLAPSSKSTSGGTAALGCLVKDYFPEPVTVSWNSGALTSGVHTFPAVLQSSGLYSLSSVVTVPSSSLGTQTYICNVNHKPSNTKVDKRVEPKSCDKTHTCPPCPAPEAAGGPSVFLFPPKPKDTLYITREPEVTCVVVDVSHEDPEVKFNWYVDGVEVHNAKTKPREEQYNSTYRVVSVLTVLHQDWLNGKEYKCKVSNKALPAPIEKTISKAKGQPREPQVCTLPPSRDELTKNQVSLSCAVKGFYPSDIAVEWESNGQPENNYKTTPPVLDSDGSFFLVSKLTVDKSRWQQGNVFSCSVMHEALHNHYTQKSLSLSPGK light 1: QPVLTQPLSVSVALGQTARITCGGNNIGSKNVHWYQQKPGQAPVLVIYRDSNRPSGIPERFSGSNSGNTATLTISRAQAGDEADYYCQVWDSSTAVFGTGTKLTVLQRTVAAPSVFIFPPSDEQLKSGTASVVCLLNNFYPREAKVQWKVDNALQSGNSQESVTEQDSKDSTYSLSSTLTLSKADYEKHKVYACEVTHQGLSSPVTKSFNRGEC heavy 2: not shown light 2: QAGLTQPPSVSVAPGQTARITCGGNNIGSKSVHWYQQKPGQAPVLVVYGDSDRPSGIPERFSGSNSGNTATLTISRVEAGDEADYYCQVWDISSDHVVFGGGTQLTVLQRQVKPEAWLSSGPSPGPGRLQLVCHVSGFYPKPVWVMWMRGEQEQQGTQLGDILPNANWTWYLRATLDVADGEAAGLSCRVKHSSLEGQDIILYWRGSC | no binding (tested: 391.2 nM)
